A protein production outcome set (Wang et al. 2014)

Experiment: label from the status in PepcDB records

Sequence	protein production
SKQKLVLASGSPRRLELLHQIGIEPARLMPMDIDETPVKLEHPRTLCRRLSQQKAEAAQAALKSEQAWKDAYVLGSDTVVAVGRRIVGKAEYTEEASAALHLLSGRSHWVYTGICLVTPDGKIRQKVAETKVRFKRLSTREIDAYIASGQWRGKAGAYGIQGIAGAFVQKLTGSYTNVVGLPLYETMSLLSGEGFEV	failed
TPGRGSRVTDQGICPKHQEALKLFCEVDEEAICVVCRESRSHKQHSVVPL	not failed
MAGIRLLPEEPETTPQQQARAAAAVTTTTTDSLASDDDRSIAADSWSIKSEYGSTLDDDQRHADAAEALSSANFRVSSDYSSDKEEPDADGGGQSMLGLQSYWDAAYSDELTNFREHGHAGEVWFGDDVMEIVTSWTKDLCVEISQRNMSVSENDVTTEVNDQADKYLSSWNVLDLGTGNGLLLHQLAKEGFSDLTGTDYSDGAVELAQHLSQRDGFPNIRFMVDDILDTKLEQQFKLVMDKGTLDAIGLHPDGPVKRVMYWDSVSKLVAPGGILVITSCNHTKDELVEEVENFNIRKSNLCRGDGNDANNVLSSGSEAASRIDQPPFEYLSHVRTYPTFMFSGSVGSRVATVAFLRK	failed
MRSIAMQAADLYVLQTAQSWLDAGQAAVLLTVARTWGSSPRPPGAMMAIRADGAVAGSVSGGCIEDDLIDQIRQRGIAALCPGARPALATYGVDGEQARRFGLPCGGTLQLVLEPLGAHSRLADLLARLRAHQTVRRSVRLADGAVTLEPAAADAEPRLDGAGFASVLGPRHRLLVVGAGQLSRYLCEMAIALDFDVTVSDPRQEYRAGWQVEGVALTTAMPDDMVIAARPDARTAVIALTHDPKLDDLALIDALQTPAFYVGALGSRANHARRVARLREHFGLTPAQLARLRGPAGIYIGSRTPPEIALSIMAEIVAGKNGAPLPPAASVAAGKARQPGGAGVIQAGLCATL	failed
MPGWHALTKPARFRYPEGLHGREIRVEFIDNIRYKKIKNAVGRAVADFGLIRDGDRIAVAVSGGKDSYTLLHILEGLRRRAPVKYELVAVTIDSGYPGFRSDVIASYLREQGFAHHLETTDHYDIIREKRRPGSSYCSICARLKRGVLYTLAQKLGCNKLALGHHLDDFVETLLLNQFFVGTLKAMAPRMLADNGETTVIRPLVYVEEREIIPFARENRFPVVCCSCPVCGTADLQRRRMKKLLTELEKENPAVKRSLLRALGNVQPRYLLDLELQRLCDVP	failed
MPITSSSETFASFFNDWLCRHRQFVQQLAHLADETTIVTPIEEESLVSNFLSHYLQYYEEKSVAMSVAGDDIYDFFSPPWLSSYEKLILWIGGFKPGMVFKLITTSVNDLTSHQIDQLESIRLETKRRERDLMRRFALLQQSVGDPLLMVPFRRIGVLRLGEGEQPEMEDAMEVLKVEMIKAMKNADQLRCVTVGKVVEVLNPRQSIKLLRAAGEFYLRLRDLGV	failed
MEKLGQFIINHWQLWLAFVVVVFLIFINEILSQRKKAKEVSPQSLVDLMNNGNAIVIDIRDKESFKNGHIINSMNVNPDDFEQQKMSKYKDKPIILVCARGLQSPTLAMKIRNQGYQPLVLSGGIQAWQNADLPLVKGK	failed
GEERKSSSWGRVDAMELPNYSRQLLQQLYTLCKEQQFCDCTISIGTIYFRAHKLVLAAASLLFKTLLDNTDTISIDASVVSPEEFALLLEMMYTGKLPVGKHNFSKIISLADSLQMFDVAVSCKNLLTSLVNCSVQGQVVRDVSAPSSETFRKEPEKPQVEILSSEGAGEPHSSPELAATPGGPVKAETEEAAHSVSQEMSVNSPTAQESQRNAETPAETPTTAEACSPSPPVQTFSEAKKTSTEPGCERKHYQLNFLLENEGVFSDALMVTQDVLKKLEMCSEIKGPQKEMIVKCFEGEGGHSAFQRILGKVREESLDVQTVVSLLRLYQYSNPAVKTALLDRKPEDVDTVQPKGSTEEGKTLSVLLLEHKEDLIQCVTQLRPIMESLETAKEEFLTGTEKRVILNCCEGRTPKETIENLLHRMTEEKTLTAEGLVKLLQAVKTTFPNLGLLLEKLQKSATLPSTTVQPSPDDYGTELLRRYHENLSEIFTDNQILLKMISHMTSLAPGEREVMEKLVKRDSGSGGFNSLISAVLEKQTLSATAIWQLLLVVQETKTCPLDLLMEEIRREPGADAFFRAVTTPEHATLETILRHNQLILEAIQQKIECKLFTSEEEHLAETVKEILSIPSETASPEASLRAVLSRAMEKSVPAIEICHLLCSVHKSFPGLQPVMQELAYIGVLTKEDGEKETWKVSNKFHLEANNKEDEKAAKEDSQPGEQNDQGETGSLPGQQEKEASASPDPAKKSFICKACDKSFHFYCRLKVHMKRCRVAKSKQVQCKECSETKDSKKELDKHQLEAHGAGGEPDAPKKKKKRLPVTCDLCGREFAHASGMQYHKLTEHFDEKPFSCEECGAKFAANSTLKNHLRLHTGDRPFMCKHCLMTFTQASALAYHTKKKHSEGKMYACQYCDAVFAQSIELSRHVRTHTGDKPYVCRDCGKGFRQANGLSIHLHTFHNIEDPYDCKKCRMSFPTLQDHRKHIHEVHSKEYHPCPTCGKIFSAPSMLERHMVTHVGGKPFSCGICNKAYQQLSGLWYHNRTHHPDVFAAQNHRSSKFSSLQCSSCDKTFPNTIEHKKHIKAEHADMKFHECDQCKELFPTPALLQVHVKCQHSGSQPFRCLYCAATFRFPGALQHHVTTEHFKQSETTFPCELCGELFTSQAQLDSHLESEHPKVMSTETQAAASQMAQVIQTPEPVAPTEQVITLEETQLAGSQVFVTLPDSQASQASSELVAVTVEDLLDGTVTLICGEAK	not failed
LSASEERFQLAVSGASAGLWDWNPKTGAMYLSPHFKKIMGYEDHELPDEITGHRESIHPDDRARVLAALKAHLEHRDTYDVEYRVRTRSGDFRWIQSRGQALWNSAGEPYRMVGWIMDVTDRKRDEDALRVSREELRRL	not failed
MKVYLHFSPQFFANTYLIGNEITKEAVIIDPAKITEKMIHQIEKNEFNLKAVLLTHDLEHPYETGLNTILKIYSPKVYAGSCFSENVTINTLRGDGCIDVAGYSVRYFAIPAHSSYSYMFQIENMVFTGTSLSAGMIGQTSNMYAERTLRNILKTKLMCFEDNLIIMPFYGPPTSIGVERKYNASFFQDFEKKPFLEHHHHHH	not failed
MGTSKYSPEFRADAVALYHASPGGTYASVAKDLGVNHETLRTWVRDAEQAGRPGAVEATAMDKENRQLRARVKELELEREILRRAAKYFAAETSWLEHHHHHH	not failed
MIAMVNDGGLALDRPTAAAIVGLFAGSMYLMTVFGGWVADNWLGQARAIWYGSIIIALGHLSIALTSVFDQSFFYLGLVLIVLGTGLFKTCISVIVGTLYKANDARRDAGFSIFYMGINMGSFIAPLITGLLAKDHGWHLGFGIGGIGMLIALLIFRFMAMPQLQTFNELRQEANSCSKPVVENKNAPKIVFSFLFAVAVVIALTFLGIIHINPVAVATYLTVGISIGIIAYFAYLLLFLNLEQHEKFKIIICFVLLAASALFWSAFEQKPTTFTLFAQDYTDRIVFGFEIPTVWFESINALFIIIFAPVAAWLWAKLGKANKDPSYISKFIIALLFAAGGFLLMSLASHFAIHGGVVSPFWLVGTLFLLTIGELCLSPIGLSTMTKLAPDVIRSQIMGLWFTGTALGNLMAGLIGGQVSADGINHLPSLFMRCVLALVIGAIVLFLLKKPMNKLMDKSTNKVQPDLETI	failed
MGWCVMAVLVDSETRVLVQGITGREGSFHAKAMLEYGTKVVAGVTPGKGGSEVHGVPVYDSVKEALAEHPEINTSIVFVPAPFAPDAVYEAVDAGIRLVVVITEGIPVHDTMRFVNYARQKGATIIGPNCPGAITPGQAKVGIMPGHIFKEGGVAVVSRSGTLTYEISYMLTRQGIGQSTVIGIGGDPIVGLSFTEALKLFQEDPQTEALVLIGEIGGDMEERAAEMIKKGEFTKPVIAYIAGRTAPPEKRMGHAGAIIMMGTGTYEGKVKALREAGVEVAETPFEVPELVRKALRR	not failed
MRKRYVMTEQVQSGPRLDWLLDGLVDRIPEIRCAIVLSGDGLLIGKSKNLRRDDAEHLSAVGSGMHSLARGAARHFHGGEVQQTVIQMDRAFLFVTAAGRGARLAAIASEQVDVGMMAFEMGTLVKQVGQYLSAAPRVETPSAGHIQDA	failed
MTVVVERQISHPPEKLWRALTQPHLIEEWLMKNDFKPAVGHRFNISADWGGVLDCEVLAVEPNKTLSYTWNLAHQDPAFDLRSVVTFTLTPTPTGTHLRMEQSGFRPDQRRAYGGAKMGWPQFFEKLEQLLDRTDLEHHHHHH	not failed
MALDQSLVGRSYPPTAPYEVGREKIREFAEAVGDANPAYTDAEAAKALGHPDVIAPPTFVFSITFKAAGQVIEDPQLGLDYSRVVHGDQKFSYARPVRAGDRLTVTSTIEAIKSMAGNDILDIRGEVHDEAGEHVVTAWTKLVARAAEEALEHHHHHH	not failed
MLSEQKEIAMQVSGMTCAACAARIEKGLKRMPGVTDANVNLATETVNVIYDPAETGTAAIQEKIEKLGYHVVTEKAEFDIEGMTCAACANRIEKRLNKIEGVANAPVNFALETVTVEYNPKEASVSDLKEAVDKLGYKLKLKGEQDS	not failed
MIDDLLNFFNSFNVVKNYKLINQLKNEVDTLKSRLDIPRELLDGFYADRNSREYREVYEKDAPLVTVCIGTYNRGKLLVERSVRSVLEQSYGNIELIVVGDCCTDDTPRLVQGITDPRFRFINLPERGNYPENPLHRWCVAGTVPFNYALSQARGDFITHLDDDDEFVPDRIEKLVKFIQREKADLVWHPFWYERSNGRWAMRKAQEFSGGKVTTSSIFYHRWFTAVPWDIEAYRYQEPGDWNRLRKIKYLGARVARYPEPLLRHYCERNQESLSSRTIQTRNTKLEHHHHHH	failed
MDVYHDGACPEVKPVDNFDWSQYHGKWWEVAKYPSPNGKYGKCGWAEYTPEGKSVKVSRYDVIHGKEYFMEGTAYPVGDSKIGKIYHSRTVGGYTKKTVFNVLSTDNKNYIIGYSCRYDEDKKGHWDHVWVLSRSMVLTGEAKTAVENYLIGSPVVDSQKLVYSDFSEAACKVNNSNWSHPQFEK	not failed
SRRRRSGTEPEKIEPGEGASRSRRDMLKDGGQQGLGTGARDPDKATRFRMEELRLTSTTFALTGDSAHNQAMVHWSGHNSSVILILTKLYDYNLGSITESSLWRSTDYGTTYEKLNDKVGLKTILSYLYVCPTNKRKIMLLTDPEIESSLLISSDEGATYQKYRLNFYIQSLLFHPKQEDWILAYSQDQKLYSSAEFGRRWQLIQESVVPNRFYWSVMGSSKEPDLVHLEARTVDGHSIYLTCRMQNCTEANRNKPFPGYIDPDSLIVQDDYVFVQLTSGGRPHYYVSYRRSPFAQMKLPKYALPKDMHVISTDENQVFAAVQEWNQNDTYNLYISDTRGVYFTLALENVQSSRGPEGNVMIDLYEVAGIKGMFLANKKIDNQVKTFITYNKGRDWRLLQAPDADLRGDPVHCLLPYCSLHLHLKVSENPYTSGIIASRDTAPSIIVASGNIGSELSDSDISMFVSSDAGNTWRQIFEEEHSILYLDQGGVLVAMKHTSLPIRHLWLSFDEGRSWSKYSFTSIPLFVDGVLGEPGEETLIMTVFGHFSHRSEWQLVKVDYKSIFDRRCAEEDYRPWQLHSQGEACIMGAKRIYKKRKSERKCMQGKYAGAMESEPCVCTEADFDCDYGYERHSNGQCLPAFWFNPSSLSKDCSLGQSYLNSTGYRKVVSNNCTDGVREQYTAKPQKCP	not failed
MKDIVIIGTENIGKEVVKIIEAINSKRNTWNVLGFISLKKDEEGSNIEGYSVLESIDSMFNYFEGRKKDKFYFFKKLESQNELFTIIAIDNCKLKKEIENKLKNKIKFATIIHPDVSFFNKQEVGEGTIIYPGLIVVGRFKLGKHVILKQKCSLGNNIEIGDYSFISFNSNIDSNVMVKEGSYIEANTTILANSNIDKNTYIKEGSILY	failed
